Data as given in US20250019427A1 (BYOMASS, published 2025).
“And” between values parts separate entries of the source, which are not always exact repeats. Equal entries are not always repeated.

T1: GDF15 (Homo sapiens (Human), UniProt Q99988 30-308)
T1 sequence: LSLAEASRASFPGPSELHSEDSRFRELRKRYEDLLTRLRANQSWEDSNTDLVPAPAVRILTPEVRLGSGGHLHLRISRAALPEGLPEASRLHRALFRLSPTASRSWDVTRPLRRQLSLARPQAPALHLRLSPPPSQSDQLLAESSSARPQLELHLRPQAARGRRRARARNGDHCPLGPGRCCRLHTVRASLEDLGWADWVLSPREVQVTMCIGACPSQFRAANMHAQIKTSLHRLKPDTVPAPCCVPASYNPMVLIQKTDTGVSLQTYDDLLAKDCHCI

T2: Cyno GDF15 Fc (cyno, UniProt G7PWZ3 193-308)
T2 construct: also called cyno GDF15-Fc fusion
T2 sequence: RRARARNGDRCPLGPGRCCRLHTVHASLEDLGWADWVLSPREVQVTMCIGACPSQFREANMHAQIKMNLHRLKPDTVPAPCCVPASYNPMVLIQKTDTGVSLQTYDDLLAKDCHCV

T3: Mouse GDF15 Fc (mouse, UniProt Q9Z0J7 189-303, limits assumed)
T3 construct: also called mouse GDF15Fc fusion
T3 sequence (looked up): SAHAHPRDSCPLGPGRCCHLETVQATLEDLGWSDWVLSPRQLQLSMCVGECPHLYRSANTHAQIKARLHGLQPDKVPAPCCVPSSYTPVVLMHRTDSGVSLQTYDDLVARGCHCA

T4: Human Activin B (human, UniProt P09529 293-407)
T4 construct: Also used for the Activin B ligand of the ActRIIB/SMAD reporter assay, where the species is not restated
T4 sequence (looked up): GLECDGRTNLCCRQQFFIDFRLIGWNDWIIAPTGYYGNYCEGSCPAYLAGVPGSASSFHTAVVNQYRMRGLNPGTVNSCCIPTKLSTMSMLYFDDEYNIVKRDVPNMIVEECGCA

T5: Human BMP10 (human, UniProt O95393 317-424)
T5 sequence (looked up): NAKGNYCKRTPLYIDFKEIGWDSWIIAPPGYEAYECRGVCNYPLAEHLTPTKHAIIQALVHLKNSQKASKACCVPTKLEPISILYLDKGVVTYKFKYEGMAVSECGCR

T6: Human Activin A Fc (human, UniProt P08476 311-426)
T6 sequence (looked up): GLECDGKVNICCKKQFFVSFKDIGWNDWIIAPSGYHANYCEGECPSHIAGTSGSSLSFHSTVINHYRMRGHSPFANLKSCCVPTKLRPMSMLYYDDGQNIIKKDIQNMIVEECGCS

T7: GDNF (UniProt P39905 78-211)
T7 sequence (looked up): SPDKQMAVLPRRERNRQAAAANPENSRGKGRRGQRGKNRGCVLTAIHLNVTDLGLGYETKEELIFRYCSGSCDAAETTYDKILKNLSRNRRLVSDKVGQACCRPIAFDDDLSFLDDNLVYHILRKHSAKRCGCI


Experiments:
GDF15 = biological target: T1, GDF15; test: cell-based or functional assay
Cyno GDF15 Fc = biological target: T2, Cyno GDF15 Fc; test: Octet BLI, Fab monovalent
Mouse GDF15 Fc = biological target: T3, Mouse GDF15 Fc; test: Octet BLI, Fab monovalent
Human Activin B = biological target: T4, Human Activin B; test: Octet BLI, IgG on tip, avid
Human BMP10 = biological target: T5, Human BMP10; test: Octet BLI, IgG on tip, avid
Human Activin A Fc = biological target: T6, Human Activin A Fc; test: Octet BLI, IgG on tip, avid
GDNF = biological target: T7, GDNF; test: Octet BLI, IgG on tip, avid
GDF8 = GDF8 (UniProt O14793 267-375); test: Octet BLI, IgG on tip, avid
GDF11 = biological target: T8, GDF11 (UniProt O95390 299-407); test: Octet BLI, IgG on tip, avid
T8 construct: Also the GDF-11 ligand of the ActRIIB/SMAD reporter assay
T8 sequence (O95390 299-407 limits assumed): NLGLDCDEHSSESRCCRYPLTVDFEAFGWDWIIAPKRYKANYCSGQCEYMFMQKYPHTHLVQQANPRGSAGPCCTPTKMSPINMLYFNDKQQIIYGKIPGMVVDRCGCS

Binder	GDF15 GFRAL RET pERK Fab IC50 pM (GDF15)	Kd (Cyno GDF15 Fc) [nM]	Kd (Mouse GDF15 Fc) [nM]	further results
Clone B Fab (Fab, V domains shown, Fab format) VH: QVQLQESGPGLVKPSQTLSLTCTVSGGSISSGGIYWTWIRQHPGKGLEWIGAIAYSGSTYYNPSLKSRVTISVDTSKNQFSLKLSSVTAADTAVYYCARGIEYQHFDYWGQGTLVTVSS VL: not shown	30.9 pM	0.349		
Clone F IgG (antibody, V domains shown, IgG format) VH: QVQLVQSGAEVKKPGSSVKVSCKASGGTFGGYAISWVRQAPGQGLEWMGGIIPPYATANYAQKFQGRVTITADESTSTAYMELSSLRSEDTAVYYCARGVGTTHLDVWGQGTMVTVSS VL: not shown				GDF15 - GFRAL RET pERK IC50 (pM) (GDF15): 34.9 pM; GDF15 - GFRAL-RET Luciferase IC50 (pM) (GDF15): 91.3 pM; binding result (Human Activin B): no binding (tested: 100 nM); binding result (Human BMP10): no binding (tested: 100 nM); binding result (Human Activin A Fc): no binding (tested: 100 nM); binding result (GDNF): no binding (tested: 100 nM); binding result (GDF8): no binding (tested: 100 nM); binding result (GDF11): no binding (tested: 100 nM)
Clone F Fab (Fab, V domains shown, Fab format) VH: QVQLVQSGAEVKKPGSSVKVSCKASGGTFGGYAISWVRQAPGQGLEWMGGIIPPYATANYAQKFQGRVTITADESTSTAYMELSSLRSEDTAVYYCARGVGTTHLDVWGQGTMVTVSS VL: not shown	11.2 pM	0.553	26.1	
Clone N Fab (Fab, V domains shown, Fab format) VH: QVQLVQSGAEVKKPGASVKVSCKASGYTFTDYGIFWVRQAPGQGLEWMGWITAYSGDTHYAQKLQGRVTMTTDTSTSTAYMELRSLRSDDTAVYYCVRDTQYGGSPYWGQGTLVTVSS VL: EIVMTQSPATLSVSPGERATLSCRASQSVSSNLAWYQQKPGQAPRLLIYGASTRATGIPARFSGSGSGTEFTLTISSLQSEDFAVYYCQQYNNWPITFGGGTKVEIK	322 pM		2.56	
Clone H Fab (Fab, V domains shown, Fab format) VH: QVQLVQSGAEVKKPGSSVKVSCKASGGTFSSYYISWVRQAPGQGLEWMGGIAPISGTASYAQKFQGRVTITADESTSTAYMELSSLRSEDTAVYYCARGLAYDGYFDLWGRGTLVTVSS VL: not shown	24.6 pM	1.42	50.9	
Clone E Fab (Fab, V domains shown, Fab format) VH: QVQLVQSGAEVKKPGASVKVSCKASGYTFTSYGINWVRQAPGQGLEWMGWITAYSGDTNYAQKLQGRVTMTTDTSTSTAYMELRSLRSDDTAVYYCARGPGQYADVDVWGQGTMVTVSS VL: DIQMTQSPSSVSASVGDRVTITCRASQGISSWLAWYQQKPGKAPKLLIYAASSLQSGVPSRFSGSGSGTDFTLTISSLQPEDFATYYCQQANSFPITFGGGTKVEIK	46.7 pM	0.413	3.08	
Clone O Fab (Fab, V domains shown, Fab format) VH: QVQLVQSGAEVKKPGATVKVSCKASGYTFDSLGMSWVRQAPGQGLEWMGYISTYSGDTVYAQKLQGRVTMTTDTSTSTAYMELRSLRSDDTAVYYCARESGQQVSALDPWGQGTLVTVSS VL: DIQMTQSPSSVSASVGDRVTITCRASQGISRWLAWYQQKPGKAPKLLIYAASSLQSGVPSRFSGSGSGTDFTLTISSLQPEDFATYYCQQGASFPLTFGGGTKVEIK		0.277	11.6	
Clone P Fab (Fab, V domains shown, Fab format) VH: QVQLVQSGAEVKKPGATVKVSCKASGYTFDSYGIHWVRQAPGQGLEWMGWITAYSGDTVYAQKLQGRVTMTTDTSTSTAYMELRSLRSDDTAVYYCARESGQTSSALGPWGQGTLVTVSS VL: DIQMTQSPSSVSASVGDRVTITCRASQGISRWLAWYQQKPGKAPKLLIYAASSLQSGVPSRFSGSGSGTDFTLTISSLQPEDFATYYCQQGASFPLTFGGGTKVEIK	701 pM and 1000 pM	1.72		

More lines, in order of falling Kd (Cyno GDF15 Fc), values ahead:

GDF15 GFRAL RET pERK Fab IC50 pM (GDF15)	Kd (Cyno GDF15 Fc) [nM]	Kd (Mouse GDF15 Fc) [nM]	Binder	further results
111 pM	1.38	1.45	Clone I Fab (Fab, V domains shown, Fab format) VH: QVQLVQSGAEVKKPGASVKVSCKASGYTFTDEGINWVRQAPGQGLEWMGWITAYSGDTVYAQKLQGRVTMTTDTSTSTAYMELRSLRSDDTAVYYCARGPGQYADVDVWGQGTMVTVSS VL: DIQMTQSPSSVSASVGDRVTITCRASQGISSWLAWYQQKPGKAPKLLIYAASSLQSGVPSRFSGSGSGTDFTLTISSLQPEDFATYYCQQANSFPITFGGGTKVEIK	
75.1 pM	0.769		Clone J Fab (Fab, V domains shown, Fab format) VH: QVQLVQSGAEVKKPGASVKVSCKASGYTFTSYGINWVRQAPGQGLEWMGWIDAYSGSTNYAQKLQGRVTMTTDTSTSTAYMELRSLRSDDTAVYYCARGPGQYADVDVWGQGTMVTVSS VL: DIQMTQSPSSVSASVGDRVTITCRASQGISSWLAWYQQKPGKAPKLLIYAASSLQSGVPSRFSGSGSGTDFTLTISSLQPEDFATYYCQQANSFPITFGGGTKVEIK	
27 pM	0.562	157	Clone D Fab (Fab, V domains shown, Fab format) VH: QVQLQESGPGLVKPSQTLSLTCTVSGGSINSGGYYWTWIRQHPGKGLEWIGAIYYSGSTVYNPSLKSRVTISVDTSKNQFSLKLSSVTAADTAVYYCARGVEYQHFNEWGQGTLVTVSS VL: not shown	
26.5 pM	0.536		Clone A Fab (Fab, V domains shown, Fab format; also called Fab of Clone A) VH: QVQLQESGPGLVKPSQTLSLTCTVSGGSITSGGSYWSWIRQHPGKGLEWIGAIVYSGSTYYNPSLKSRVTISVDTSKNQFSLKLSSVTAADTAVYYCARGVEYQHFDYWGQGTLVTVSS VL: not shown	
33.2 pM	0.474		Clone G Fab (Fab, V domains shown, Fab format) VH: QVQLVQSGAEVKKPGSSVKVSCKASGGTFQGYAISWARQAPGQGLEWMGGIIPPYATANYAQKFQGRVTITADESTSTAYMELSSLRSEDTAVYYCARGVGELHLDVWGQGTMVTVSS VL: not shown	
	0.369	1.92	Clone T Fab (Fab, V domains shown, Fab format) VH: QVQLVQSGAEVKKPGASVKVSCKASGYTFTSYGINWVRQAPGQGLEWMGWITAYSGDTNYAQKLQGRVTMTTDTSTSTAYMELRSLRSDDTAVYYCARGPGQYADVDVWGQGTMVTVSS VL: DIQMTQSPSSVSASVGDRVTITCRASQGISSWLAWYQQKPGKAPKLLIYAASSLQSGVPSRFSGSGSGTDFTLTISSLQPEDFATYYCQQASQFPITFGGGTKVEIK	
	0.366	234	Clone R Fab (Fab, V domains shown, Fab format) VH: QVQLQESGPGLVKPSQTLSLTCTVSGGSISSGGIYWTWIRQHPGKGLEWIGAIAYSGSTYYNPSLESRVTISVDTSKNQFSLKLSSVTAADTAVYYCARGIEYQHFDYWGQGTLVTVSS VL: not shown	
36.8 pM	0.36	156	Clone C Fab (Fab, V domains shown, Fab format; also called Fab of Clone C) VH: QVQLQESGPGLVKPSQTLSLTCTVSGGSISSGGYYWSWIRQHPGKGLEWIGAIVYSGHTYYNPSLKSRVTISVDTSKNQFSLKLSSVTAADTAVYYCARGVEYQHFSLWGQGTLVTVSS VL: not shown	
	0.327	204	Clone Q Fab (Fab, V domains shown, Fab format) VH: QVQLQESGPGLVKPSQTLSLTCTVSGGSISSGGIYWTWIRQHPGKGLEWIGAIAYSGSTYYNPSLKSRVTISVDTSKNQFSLKLSSVTAADTAVYYCARGIEYQHFDYWGQGTLVTVSS VL: not shown	
	0.252	1.36	Clone S Fab (Fab, V domains shown, Fab format) VH: QVQLVQSGAEVKKPGASVKVSCKASGYTFTSYGINWVRQAPGQGLEWMGWITAYSGDTNYAQKLQGRVTMTTDTSTSTAYMELRSLRSDDTAVYYCARGPGQYADVDVWGQGTMVTVSS VL: DIQLTQSPSSVSASVGDRVTITCRASQGISPWLAWYQQKPGKAPKLLIYAASSLQSGVPSRFSGSGSGTDFTLTISSLQPEDFATYYCQQANSFPITFGGGTKVEIK	
